This note sets out measurements from article PMC9522604.

Read-outs that look alike come from different tables or passages of the source.

The target in data set [1] is T1, Cas12c2 (UniProt PDB:7V94_1 1-1232).
T1 sequence: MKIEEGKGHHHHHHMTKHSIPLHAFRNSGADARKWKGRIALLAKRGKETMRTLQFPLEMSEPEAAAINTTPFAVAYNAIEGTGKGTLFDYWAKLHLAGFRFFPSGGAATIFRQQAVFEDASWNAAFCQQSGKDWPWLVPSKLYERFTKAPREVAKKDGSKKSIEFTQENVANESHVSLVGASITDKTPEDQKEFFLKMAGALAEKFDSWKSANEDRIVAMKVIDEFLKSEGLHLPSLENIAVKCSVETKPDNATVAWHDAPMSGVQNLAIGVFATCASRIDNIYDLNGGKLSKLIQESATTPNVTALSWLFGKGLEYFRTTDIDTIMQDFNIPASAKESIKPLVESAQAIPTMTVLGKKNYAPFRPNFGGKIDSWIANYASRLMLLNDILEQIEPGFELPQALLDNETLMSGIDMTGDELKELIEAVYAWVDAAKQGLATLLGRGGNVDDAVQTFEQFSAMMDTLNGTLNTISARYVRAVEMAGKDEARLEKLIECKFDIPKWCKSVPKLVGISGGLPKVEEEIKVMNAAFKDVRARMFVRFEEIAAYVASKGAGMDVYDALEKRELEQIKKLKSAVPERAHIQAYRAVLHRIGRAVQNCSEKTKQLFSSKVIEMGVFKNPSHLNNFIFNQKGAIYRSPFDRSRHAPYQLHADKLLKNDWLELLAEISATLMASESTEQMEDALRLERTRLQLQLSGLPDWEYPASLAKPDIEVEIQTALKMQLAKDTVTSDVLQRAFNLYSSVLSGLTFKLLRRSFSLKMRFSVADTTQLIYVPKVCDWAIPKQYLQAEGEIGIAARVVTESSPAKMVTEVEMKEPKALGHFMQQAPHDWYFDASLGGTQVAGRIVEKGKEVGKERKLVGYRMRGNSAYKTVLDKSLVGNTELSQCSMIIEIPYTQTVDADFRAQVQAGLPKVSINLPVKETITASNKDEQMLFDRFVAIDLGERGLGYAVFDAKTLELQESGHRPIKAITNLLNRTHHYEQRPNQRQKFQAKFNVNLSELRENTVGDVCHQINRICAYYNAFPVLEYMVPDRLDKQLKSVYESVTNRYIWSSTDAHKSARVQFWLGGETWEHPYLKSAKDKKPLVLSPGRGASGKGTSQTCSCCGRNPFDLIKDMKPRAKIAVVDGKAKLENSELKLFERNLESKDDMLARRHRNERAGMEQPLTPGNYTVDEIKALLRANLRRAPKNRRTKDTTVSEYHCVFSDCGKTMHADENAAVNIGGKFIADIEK
Nature of the data set: cryo-EM.

For data set [2], the target named is T1, Cas12c2. In words: cryo-EM. The source holds these as a separate data set.

B1: Cas12c2 sgRNA (112 nt) (structured_RNA)
RNA: GGAUACCACCCGUGCAUUUCUGGAUCAAUGAUCCGUACCUCAAUGUCCGGGCGCGCAGCUAGAGCGACCUGAAGAAAUUCAGGUUGGGUUUGAGGGGAAAUUAGGUGCGCUU
For the molecule B1, the binding result with Cas12c2 [1] is “binds”.

B2: sgRNA + 33-bp target DNA, TG PAM (guide/target strand/non-target strand) (mixed)
RNA: B1 RNA
DNA 1: AGGTTGCCAAGCGCACCTAATTTCCCATTTTAG
DNA 2: CTAAAATGGGAAATTAGGTGCGCTTGGCAACCT
With B2, the binding result with Cas12c2 [2] is given as “binds”.
